# Test results from patent US20200147244A1.
# Key:
# [1] = molecular target: recombinant PSMA protein (human) (UniProt Q04609); assay: ELISA on PSMA
# [2] = molecular target: His-PSMA (Sino Biological) (human) (UniProt Q04609); assay: ELISA, PSMA immobilized by its His tag, PCC titrated in solution
# [3] = molecular target: PSMA-Myc-Flag (Origene) (human) (UniProt Q04609); assay: ELISA, PSMA immobilized by its Myc-Flag tag, PCC titrated in solution
# PSMA-Myc-Flag (Origene) (human), sequence (Q04609 whole entry): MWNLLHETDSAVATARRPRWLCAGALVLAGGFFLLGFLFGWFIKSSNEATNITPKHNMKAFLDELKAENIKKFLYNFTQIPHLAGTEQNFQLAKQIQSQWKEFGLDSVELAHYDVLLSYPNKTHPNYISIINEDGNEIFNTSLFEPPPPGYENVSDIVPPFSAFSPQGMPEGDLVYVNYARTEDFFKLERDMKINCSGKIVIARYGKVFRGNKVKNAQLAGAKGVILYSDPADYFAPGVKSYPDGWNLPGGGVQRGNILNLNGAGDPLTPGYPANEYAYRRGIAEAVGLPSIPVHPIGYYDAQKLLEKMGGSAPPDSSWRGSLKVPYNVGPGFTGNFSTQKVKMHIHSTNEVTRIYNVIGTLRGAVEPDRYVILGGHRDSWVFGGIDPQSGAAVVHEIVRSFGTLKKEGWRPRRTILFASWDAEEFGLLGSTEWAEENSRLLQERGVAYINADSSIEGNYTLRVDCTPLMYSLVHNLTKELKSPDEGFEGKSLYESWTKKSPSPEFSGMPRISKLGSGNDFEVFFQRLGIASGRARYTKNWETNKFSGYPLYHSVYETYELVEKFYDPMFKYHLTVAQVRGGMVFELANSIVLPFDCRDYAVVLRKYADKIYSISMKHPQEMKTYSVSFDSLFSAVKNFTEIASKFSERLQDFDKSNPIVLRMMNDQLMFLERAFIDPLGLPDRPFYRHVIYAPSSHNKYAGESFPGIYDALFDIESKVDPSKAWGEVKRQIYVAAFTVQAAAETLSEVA
# recombinant PSMA protein (human), sequence (Q04609 44-750 limits assumed): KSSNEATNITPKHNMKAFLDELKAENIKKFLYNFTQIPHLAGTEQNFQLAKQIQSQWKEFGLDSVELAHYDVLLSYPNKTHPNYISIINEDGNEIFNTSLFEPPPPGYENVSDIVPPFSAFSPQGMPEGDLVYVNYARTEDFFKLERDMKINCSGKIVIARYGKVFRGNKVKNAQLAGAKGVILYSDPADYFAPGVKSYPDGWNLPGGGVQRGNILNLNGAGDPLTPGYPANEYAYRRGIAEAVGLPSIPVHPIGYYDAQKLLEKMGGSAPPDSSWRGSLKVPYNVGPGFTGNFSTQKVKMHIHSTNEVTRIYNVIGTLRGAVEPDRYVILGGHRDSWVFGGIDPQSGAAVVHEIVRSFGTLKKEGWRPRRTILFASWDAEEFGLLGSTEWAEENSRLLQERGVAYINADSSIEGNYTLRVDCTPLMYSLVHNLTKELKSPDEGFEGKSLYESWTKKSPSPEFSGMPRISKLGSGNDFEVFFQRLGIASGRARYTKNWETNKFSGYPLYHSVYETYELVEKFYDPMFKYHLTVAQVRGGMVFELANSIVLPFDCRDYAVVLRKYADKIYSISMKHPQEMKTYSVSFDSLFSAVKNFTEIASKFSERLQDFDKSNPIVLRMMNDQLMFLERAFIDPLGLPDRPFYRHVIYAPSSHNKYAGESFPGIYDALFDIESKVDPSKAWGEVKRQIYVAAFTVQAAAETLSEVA
# His-PSMA (Sino Biological) (human), sequence (Q04609 44-750 limits assumed): as above
Substance,EC50 [1],EC50 [2],EC50 [3]
hnwlG (SEQ ID NO:19) (peptide),5580 nM,,
hreww (SEQ ID NO:10) (peptide),,872 nM,662 nM
lfkhh (SEQ ID NO:16) (peptide),8.6 nM,,
